Experiments:
[1] = molecular target: Chlamydomonas [FeFe]-hydrogenase HYDA1 (CrHYDA1) (Chlamydomonas reinhardtii)
[2] = molecular target: Chlamydomonas ferredoxin:NAD(P) reductase I (CrFNR1) (Chlamydomonas reinhardtii) (UniProt P53991)
UniProt P53991, sequence (P53991 36-354): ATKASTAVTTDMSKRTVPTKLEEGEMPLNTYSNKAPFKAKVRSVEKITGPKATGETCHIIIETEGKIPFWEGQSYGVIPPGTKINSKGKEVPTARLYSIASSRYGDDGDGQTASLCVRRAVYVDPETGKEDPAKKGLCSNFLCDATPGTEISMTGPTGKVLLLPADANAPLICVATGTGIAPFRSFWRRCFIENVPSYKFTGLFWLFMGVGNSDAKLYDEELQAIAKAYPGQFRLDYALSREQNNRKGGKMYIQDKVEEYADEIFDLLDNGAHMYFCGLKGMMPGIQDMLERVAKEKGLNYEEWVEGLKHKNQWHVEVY

| hydrogen photo-production rate (thylakoids, 100 nM HYDA1, light, gas chromatography) [1] | Km for the ferredoxin in FNR1-catalysed NADPH photo-production (thylakoids, 0.5 μM FNR1, varied FDX, Lineweaver-Burk) [2] [µM] | catalytic efficiency kcat/Km of FNR1-catalysed NADPH photo-production with this ferredoxin [2] [M⁻¹ s⁻¹] | hydrogen photo-production rate (thylakoids, 100 nM HYDA1, light, gas chromatography) (µmol H2/µg Chl/h) [1] | Substance |
| --- | --- | --- | --- | --- |
| 489 | 0.4 | 1.7e+09 |  | Chlamydomonas reinhardtii ferredoxin 1 (CrFDX1), mature, tag cleaved (natural protein) |
|  | 0.69 |  | 150 | CrFDX2 (M62F) (natural protein) |
| 86 | 0.18 | 3.5e+09 |  | Chlamydomonas reinhardtii ferredoxin 2 (CrFDX2), mature, wild type, tag cleaved (natural protein) |
| 134 | 0.38 |  |  | CrFDX2 (∇95Y) (natural protein) |
| 264 | 3.44 |  |  | CrFDX2 (M62F/∇95Y) (natural protein) |

Source: article PMC4791469
